Laboratory results taken from doi:10.1101/2025.04.28.648957 (bioRxiv, 2025).

How the values were obtained:
SEC = target: the molecule itself; assay: SEC
negative-staining TEM = target: the molecule itself; assay: negative-staining TEM
SEC-MALS = target: the molecule itself; assay: SEC-MALS

| Protein | binding result (SEC) | binding result (negative-staining TEM) | stoichiometry N (SEC-MALS) |
| --- | --- | --- | --- |
| tag-cleaved SSNA1 1-104 (domain or fragment, human) GPMTQQGAALQNYNNELVKCIEELCQKREELCRQIQEEEDEKQRLQNEVRQLTEKLARVNENLARKIASRNEFDRTIAETEAAYLKILESSQTLLSVLKREAGNLT | binds | – | – |
| tag-cleaved SSNA1 1-97 (domain or fragment, human) GPMTQQGAALQNYNNELVKCIEELCQKREELCRQIQEEEDEKQRLQNEVRQLTEKLARVNENLARKIASRNEFDRTIAETEAAYLKILESSQTLLSVLK | – | binds | – |
| tag-cleaved SSNA1 S89A (natural protein, human) GPMTQQGAALQNYNNELVKCIEELCQKREELCRQIQEEEDEKQRLQNEVRQLTEKLARVNENLARKIASRNEFDRTIAETEAAYLKILESAQTLLSVLKREAGNLTKATAPDQKSSGGRDS | – | binds | – |
| tag-cleaved SSNA1 S89D (natural protein, human) GPMTQQGAALQNYNNELVKCIEELCQKREELCRQIQEEEDEKQRLQNEVRQLTEKLARVNENLARKIASRNEFDRTIAETEAAYLKILESDQTLLSVLKREAGNLTKATAPDQKSSGGRDS | – | – | 2 |
| tag-cleaved SSNA1 (full-length human SSNA1, 1-119) (natural protein) GPMTQQGAALQNYNNELVKCIEELCQKREELCRQIQEEEDEKQRLQNEVRQLTEKLARVNENLARKIASRNEFDRTIAETEAAYLKILESSQTLLSVLKREAGNLTKATAPDQKSSGGRDS | binds | – | – |
| tag-cleaved SSNA1 1-90 (domain or fragment, human) GPMTQQGAALQNYNNELVKCIEELCQKREELCRQIQEEEDEKQRLQNEVRQLTEKLARVNENLARKIASRNEFDRTIAETEAAYLKILESSQ | – | – | 2 |
